From patent publication US20250223378A1 (MABCARE THERAPEUTICS, published 2025)
Where a chain is given by its changes, count along the chain named. Each block holds one binder with its values, some of them ahead of it.

Columns and labels:
[1] = target: T1, Human PTK7 protein (Catalog No. PT7-H52H3, Acrobiosystems) (human, UniProt Q13308 31-704); assay: ELISA, PTK7 protein immobilized on the plate, peroxidase anti-human IgG, OD450
T1 construct: Bought protein
T1 sequence (looked up): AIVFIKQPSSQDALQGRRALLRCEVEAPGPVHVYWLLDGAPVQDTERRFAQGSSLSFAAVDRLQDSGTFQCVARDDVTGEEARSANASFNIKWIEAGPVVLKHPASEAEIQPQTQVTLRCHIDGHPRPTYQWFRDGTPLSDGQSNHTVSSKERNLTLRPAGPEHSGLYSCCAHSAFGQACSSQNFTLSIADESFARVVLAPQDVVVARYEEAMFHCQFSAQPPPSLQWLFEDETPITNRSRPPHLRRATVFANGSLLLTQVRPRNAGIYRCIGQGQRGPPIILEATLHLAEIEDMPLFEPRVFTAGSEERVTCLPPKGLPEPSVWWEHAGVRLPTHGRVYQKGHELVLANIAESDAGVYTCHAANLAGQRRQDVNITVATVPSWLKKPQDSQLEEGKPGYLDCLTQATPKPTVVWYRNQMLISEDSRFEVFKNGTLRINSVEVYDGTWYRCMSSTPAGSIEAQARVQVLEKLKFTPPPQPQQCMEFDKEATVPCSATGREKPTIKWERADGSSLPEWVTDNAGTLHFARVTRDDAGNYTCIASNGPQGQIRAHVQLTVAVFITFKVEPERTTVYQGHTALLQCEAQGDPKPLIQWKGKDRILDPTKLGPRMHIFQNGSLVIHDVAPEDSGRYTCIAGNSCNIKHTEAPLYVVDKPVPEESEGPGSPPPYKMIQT
Description: (§1) Human PTK7 protein (Catalog No. PT7-H52H3, Acrobiosystems), monkey PTK7 protein (Catalog No. PT7-C52H3, Acrobiosystems), and murine PTK7 protein (Catalog No. PT7-M52H3, Acrobiosystems) were incubated at 4° C. overnight and immobilized onto a 96-well plate. The plate was then blocked by incubating at 37° C. with 1% BSA in PBS for 1 h. After blocking, the plate was washed 3 times with PBST (PBS containing 0.05% Tween 20). Serial dilutions of anti-PTK7 antibody as prepared in Example 2 of the present disclosure was prepared in a binding buffer (PBS containing 0.05% Tween20 and 0.5% BSA) and incubated with the immobilized proteins at 37° C. for 1 h. After binding, the plate was washed 3 times with PBST, incubated with peroxidase-labeled donkey anti-human IgG (Jackson ImmunoResearch) diluted at 1/15,000 in the binding buffer at 37° C. for 1 h, washed again, developed with TMB and terminated with 1M H₂SO₄. The absorbance at 450 nm-620 nm was measured.

[2] = target: T2, monkey PTK7 protein (Catalog No. PT7-C52H3, Acrobiosystems) (monkey, UniProt A0A2K5VNQ6 31-704); assay: as above
T2 construct: Bought protein; not shown: The vendor's purification tag, probably a C-terminal His tag
T2 sequence: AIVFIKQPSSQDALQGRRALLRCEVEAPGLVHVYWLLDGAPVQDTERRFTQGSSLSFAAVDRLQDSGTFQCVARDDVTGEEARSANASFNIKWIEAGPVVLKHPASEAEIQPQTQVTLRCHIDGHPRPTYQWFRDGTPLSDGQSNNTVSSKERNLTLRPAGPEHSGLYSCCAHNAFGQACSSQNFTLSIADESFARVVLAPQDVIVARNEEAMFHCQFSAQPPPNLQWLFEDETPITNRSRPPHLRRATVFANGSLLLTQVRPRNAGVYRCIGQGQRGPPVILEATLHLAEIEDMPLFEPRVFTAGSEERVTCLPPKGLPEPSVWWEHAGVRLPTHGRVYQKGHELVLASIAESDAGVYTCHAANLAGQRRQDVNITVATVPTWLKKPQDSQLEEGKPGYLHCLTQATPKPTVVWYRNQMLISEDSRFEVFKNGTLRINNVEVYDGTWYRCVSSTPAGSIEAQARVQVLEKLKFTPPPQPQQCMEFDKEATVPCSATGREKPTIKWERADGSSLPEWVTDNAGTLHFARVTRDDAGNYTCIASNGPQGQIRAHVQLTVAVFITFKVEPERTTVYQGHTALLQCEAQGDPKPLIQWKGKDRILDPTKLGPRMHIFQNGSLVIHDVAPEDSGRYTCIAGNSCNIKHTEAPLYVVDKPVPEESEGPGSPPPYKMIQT
Description: as §1

[3] = target: T3, murine PTK7 protein (Catalog No. PT7-M52H3, Acrobiosystems) (murine, UniProt Q8BKG3 23-696); assay: as above
T3 construct: Bought protein; also called mouse PTK7
T3 sequence (looked up): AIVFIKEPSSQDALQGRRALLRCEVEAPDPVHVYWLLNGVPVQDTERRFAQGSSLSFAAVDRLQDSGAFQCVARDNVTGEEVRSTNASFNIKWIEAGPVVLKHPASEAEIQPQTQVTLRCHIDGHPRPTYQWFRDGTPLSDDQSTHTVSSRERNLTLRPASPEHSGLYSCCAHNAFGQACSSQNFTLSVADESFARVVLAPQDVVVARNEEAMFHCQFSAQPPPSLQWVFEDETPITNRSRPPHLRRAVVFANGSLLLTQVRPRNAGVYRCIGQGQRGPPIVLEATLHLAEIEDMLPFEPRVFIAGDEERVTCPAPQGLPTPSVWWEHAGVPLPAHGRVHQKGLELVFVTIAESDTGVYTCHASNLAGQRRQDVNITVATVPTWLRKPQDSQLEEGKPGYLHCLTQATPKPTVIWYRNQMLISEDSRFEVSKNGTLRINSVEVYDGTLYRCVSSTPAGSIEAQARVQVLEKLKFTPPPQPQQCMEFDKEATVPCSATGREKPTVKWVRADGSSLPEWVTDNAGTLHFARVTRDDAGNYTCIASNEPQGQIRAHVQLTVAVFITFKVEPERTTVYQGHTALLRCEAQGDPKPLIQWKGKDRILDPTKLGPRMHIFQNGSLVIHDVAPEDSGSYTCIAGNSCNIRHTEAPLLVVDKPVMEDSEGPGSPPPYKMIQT
Description: as §1

[4] = target: T4, PTK7 on the SK-OV-3 cell line (human ovarian cancer cells) (human, UniProt Q13308 31-1070); assay: flow cytometry on SK-OV-3 cells, FITC goat anti-human secondary antibody, MFI
T4 construct: whole, on cells
T4 sequence (looked up): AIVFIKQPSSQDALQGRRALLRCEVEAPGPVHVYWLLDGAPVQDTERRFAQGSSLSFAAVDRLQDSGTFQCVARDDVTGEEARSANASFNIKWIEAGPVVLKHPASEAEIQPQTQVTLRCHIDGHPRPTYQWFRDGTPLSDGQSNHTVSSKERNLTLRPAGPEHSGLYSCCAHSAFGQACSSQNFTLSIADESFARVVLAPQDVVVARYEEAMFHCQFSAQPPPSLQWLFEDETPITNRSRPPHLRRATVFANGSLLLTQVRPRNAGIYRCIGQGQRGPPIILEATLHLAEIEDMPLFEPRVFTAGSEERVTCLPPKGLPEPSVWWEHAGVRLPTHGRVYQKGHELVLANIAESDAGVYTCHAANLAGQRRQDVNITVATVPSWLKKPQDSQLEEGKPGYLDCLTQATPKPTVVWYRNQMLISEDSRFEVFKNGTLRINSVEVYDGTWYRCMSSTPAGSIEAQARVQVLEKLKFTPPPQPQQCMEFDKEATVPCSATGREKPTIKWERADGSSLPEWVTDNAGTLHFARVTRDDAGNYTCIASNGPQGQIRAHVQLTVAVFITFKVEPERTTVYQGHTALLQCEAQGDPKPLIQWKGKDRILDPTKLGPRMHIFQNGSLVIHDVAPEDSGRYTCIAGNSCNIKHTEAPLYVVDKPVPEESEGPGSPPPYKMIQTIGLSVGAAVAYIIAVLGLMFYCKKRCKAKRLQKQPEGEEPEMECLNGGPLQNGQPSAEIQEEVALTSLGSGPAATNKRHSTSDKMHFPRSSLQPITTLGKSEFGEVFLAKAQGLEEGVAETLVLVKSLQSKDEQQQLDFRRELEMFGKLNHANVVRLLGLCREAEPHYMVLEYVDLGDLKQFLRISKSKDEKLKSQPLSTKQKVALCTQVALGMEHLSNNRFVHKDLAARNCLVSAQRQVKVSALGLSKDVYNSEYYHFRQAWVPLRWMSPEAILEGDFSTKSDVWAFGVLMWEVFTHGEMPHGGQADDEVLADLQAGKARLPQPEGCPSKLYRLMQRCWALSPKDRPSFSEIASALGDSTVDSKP
Description: SK-OV-3 (human ovarian cancer cells, ATCC, Catalog No. HTB-77) was digested with trypsin in a culture dish, and the digested cells were centrifuged at 1000 rpm for 5 min and then blocked with 10% goat serum (purchased from Beijing Solarbio Science & Technology Co. Ltd., Item No. SL038) for 30 min. The anti-PTK7 antibodies as prepared in Example 2 of the present disclosure were diluted in a 3-fold gradient with a starting concentration of 500 nM. At the end of dilution, the gradient diluted anti-PTK7 antibodies were added to the cells, incubated for 1 h, and washed twice with PBS. Then, FITC-labeled goat anti-human secondary antibody (purchased from Jackson ImmunoResarch, Item No. 109-545-008) was added at 1:500, incubated for 1 h, and finally washed twice with PBS. The results were analyzed by flow cytometry.

EC50 [1]: 0.0571 nM
EC50 [2]: 0.0472 nM
binding result [3]: no binding
EC50 [4]: 0.189 nM
B1: human-murine chimeric PTK7 antibody ch13 (antibody, V domains shown)
VH: QVQLQQSGAELVRPGVSVKISCKGSGYTFTDYGMHWLKQSHAKSLEWIGVISPYYGDVTYNQKFKGKATMTVDKSSSTAYMELARLTSEDSAIYYCARGMGYWGQGTSVTVSS
VL: DVQITQSPSYLAASPGETITINCRASQSISKYLAWYQEKPGKTNKLLIYSGSTLQSGIPSRFSGSGSGTDFTLTISSLEPEDFAMYYCQQHNEYPWTFGGGTKLEIK

EC50 [4]: 0.156 nM
B2: humanized PTK7 antibody Hu13H3L3 (antibody, V domains shown)
VH: QVQLVQSGAEVKKPGASVKISCKGSGYTFTDYGMHWLKQAPGQGLEWIGVISPYYGDVNYNQKFQGRATMTVDKSISTAYMELSRLRSDDTAVYYCARGMGYWGQGTLVTVSS
VL: DVQITQSPSFLSASVGDRVTITCRASQSISKYLAWYQQKPGKAPKLLIYSGSTLQSGVPSRFSGSGSGTEFTLTISSLQPEDFAMYYCQQHNEYPWTFGQGTKVEIK

EC50 [4]: 0.19 nM
B3: humanized PTK7 antibody Hu13H3L0 (Ab13) (antibody, V domains shown)
VH: B2 VH
VL: B2 VL with V2I, I4L, M85T

EC50 [4]: 0.161 nM
B4: humanized PTK7 antibody Hu13H3L5 (antibody, V domains shown)
VH: B2 VH
VL: B2 VL with F10Y, V15P, V19I, P44N

EC50 [4]: 0.213 nM
B5: humanized PTK7 antibody Hu13H2L3 (antibody, V domains shown)
VH: B2 VH with I20V, K38R, I48M, A68V, V72R, A92V
VL: B2 VL

EC50 [4]: 0.163 nM
B6: humanized PTK7 antibody Hu13H2L0 (antibody, V domains shown)
VH: B2 VH with I20V, K38R, I48M, A68V, V72R, A92V
VL: B2 VL with V2I, I4L, M85T
